Holding throughout (experiment): ITC
Experiment [1] has as its target T1, ecdTDR Y234 alanine mutant (Arabidopsis thaliana, UniProt Q9FII5 30-642, alanine substitution of Y234).
T1 sequence: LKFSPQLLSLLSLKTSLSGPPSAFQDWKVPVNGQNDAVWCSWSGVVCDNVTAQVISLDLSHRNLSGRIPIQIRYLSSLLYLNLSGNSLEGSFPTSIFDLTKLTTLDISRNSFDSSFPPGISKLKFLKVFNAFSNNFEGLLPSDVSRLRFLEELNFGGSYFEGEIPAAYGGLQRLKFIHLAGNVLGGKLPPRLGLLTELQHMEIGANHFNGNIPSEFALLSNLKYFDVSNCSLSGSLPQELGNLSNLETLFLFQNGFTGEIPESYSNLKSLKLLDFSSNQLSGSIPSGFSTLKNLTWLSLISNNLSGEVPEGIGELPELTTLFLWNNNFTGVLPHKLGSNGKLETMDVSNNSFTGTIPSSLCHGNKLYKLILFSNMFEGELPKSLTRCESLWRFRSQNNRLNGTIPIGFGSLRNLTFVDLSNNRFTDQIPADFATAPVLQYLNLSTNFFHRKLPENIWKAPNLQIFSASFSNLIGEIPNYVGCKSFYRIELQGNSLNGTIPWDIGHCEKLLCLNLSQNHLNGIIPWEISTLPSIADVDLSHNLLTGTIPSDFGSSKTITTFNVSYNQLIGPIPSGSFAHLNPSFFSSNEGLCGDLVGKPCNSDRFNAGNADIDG

For a further experiment, the target named is T2, ecdTDR W353A mutant (Arabidopsis thaliana, UniProt Q9FII5 30-642, W353A).
T2 sequence: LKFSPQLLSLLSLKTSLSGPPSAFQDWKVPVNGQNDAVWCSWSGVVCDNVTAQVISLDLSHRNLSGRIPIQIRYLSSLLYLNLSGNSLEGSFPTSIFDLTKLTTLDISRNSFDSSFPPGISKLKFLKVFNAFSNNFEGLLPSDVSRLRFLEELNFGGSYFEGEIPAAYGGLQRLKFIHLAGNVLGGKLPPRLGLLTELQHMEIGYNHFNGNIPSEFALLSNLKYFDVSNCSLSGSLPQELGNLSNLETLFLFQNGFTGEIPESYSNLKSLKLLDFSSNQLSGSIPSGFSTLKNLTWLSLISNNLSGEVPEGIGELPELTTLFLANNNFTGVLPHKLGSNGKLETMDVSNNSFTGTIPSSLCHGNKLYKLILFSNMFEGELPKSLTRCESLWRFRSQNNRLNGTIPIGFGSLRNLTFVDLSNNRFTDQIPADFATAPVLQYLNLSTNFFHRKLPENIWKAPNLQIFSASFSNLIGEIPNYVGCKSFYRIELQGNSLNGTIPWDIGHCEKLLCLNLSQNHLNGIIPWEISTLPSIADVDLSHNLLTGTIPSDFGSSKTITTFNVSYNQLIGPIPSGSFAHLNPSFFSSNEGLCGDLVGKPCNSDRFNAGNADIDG

Experiment [2] deals with T3, ecdTDR F279 alanine mutant (Arabidopsis thaliana, UniProt Q9FII5 30-642, alanine substitution of F279).
T3 sequence: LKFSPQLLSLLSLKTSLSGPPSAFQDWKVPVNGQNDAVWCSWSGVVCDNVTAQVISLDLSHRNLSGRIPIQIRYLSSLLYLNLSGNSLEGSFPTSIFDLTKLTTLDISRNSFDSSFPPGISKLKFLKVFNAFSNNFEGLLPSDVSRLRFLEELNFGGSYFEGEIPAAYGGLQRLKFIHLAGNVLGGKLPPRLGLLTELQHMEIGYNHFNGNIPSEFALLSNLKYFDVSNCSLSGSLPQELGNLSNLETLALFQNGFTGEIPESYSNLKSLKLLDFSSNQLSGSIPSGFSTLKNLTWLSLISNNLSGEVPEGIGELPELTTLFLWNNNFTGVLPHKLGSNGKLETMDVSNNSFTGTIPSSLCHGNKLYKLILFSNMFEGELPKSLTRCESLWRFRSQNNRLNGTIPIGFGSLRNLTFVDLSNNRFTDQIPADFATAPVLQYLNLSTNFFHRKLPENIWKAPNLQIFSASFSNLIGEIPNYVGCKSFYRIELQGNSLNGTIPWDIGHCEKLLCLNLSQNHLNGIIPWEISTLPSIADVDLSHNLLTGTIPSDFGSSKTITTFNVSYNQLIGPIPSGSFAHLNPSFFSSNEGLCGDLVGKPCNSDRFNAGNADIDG

Experiment [3] deals with T4, ecdTDR mutant with all five N-terminal anchoring site-binding residues replaced by alanine (Arabidopsis thaliana, UniProt Q9FII5 30-642).
T4 chain: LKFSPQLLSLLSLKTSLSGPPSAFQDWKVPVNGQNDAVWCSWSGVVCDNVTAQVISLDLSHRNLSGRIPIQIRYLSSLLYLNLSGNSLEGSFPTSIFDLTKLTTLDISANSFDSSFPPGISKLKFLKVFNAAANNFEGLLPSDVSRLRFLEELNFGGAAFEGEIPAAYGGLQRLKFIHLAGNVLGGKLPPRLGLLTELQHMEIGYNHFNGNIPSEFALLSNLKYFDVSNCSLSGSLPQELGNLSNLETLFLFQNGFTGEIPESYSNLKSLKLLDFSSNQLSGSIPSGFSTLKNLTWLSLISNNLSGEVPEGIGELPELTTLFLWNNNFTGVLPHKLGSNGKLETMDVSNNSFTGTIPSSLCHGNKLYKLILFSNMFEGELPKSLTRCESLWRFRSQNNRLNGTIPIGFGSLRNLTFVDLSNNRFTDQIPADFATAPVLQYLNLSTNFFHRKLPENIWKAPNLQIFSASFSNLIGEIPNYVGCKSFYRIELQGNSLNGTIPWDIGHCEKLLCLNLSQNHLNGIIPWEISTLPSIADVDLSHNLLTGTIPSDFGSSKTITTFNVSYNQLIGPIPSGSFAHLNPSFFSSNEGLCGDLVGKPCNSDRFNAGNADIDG

Square brackets hold non-standard residues; d marks the D form. Ends that are not written are not given here. Hyp = O=C(O)[C@@H]1C[C@@H](O)CN1

B1: Tracheary Element Differentiation Inhibitory Factor (TDIF) peptide (peptide)
peptide: HEV[Hyp]SG[Hyp]NPISN
notes: TDIF, the 12-residue CLE peptide processed from CLE41 and CLE44 of A. thaliana; printed as HEV(Hyp)SG(Hyp)NPISN; numbers count on: the 12-residue peptide; CLE44 encodes the same peptide; also called wild type TDIF; wtTDIF; source: synthetic peptide (peptide 2.0)
What is called Kd is the concentration at which binding is half-saturated. Low values mean higher affinity, high ones lower affinity. Turning to B1, the Kd was found to be 1.65 µM in experiment [1], 0.862 µM in the experiment with ecdTDR W353A mutant, 0.307 µM in experiment [2] and 3.24 µM in experiment [3].

The values are drawn from PMC5383425, “Differential CLE peptide perception by plant receptors implicated from structural and functional analyses of TDIF-TDR interactions” (PLoS ONE, 2017).
